Experiments:
Tresu_2185 (CARD1) = assay type: biochemical, Treponema succinifaciens
Procedure: (§1) The reactions were done in a reaction buffer (20 mM Tris-HCl, pH 7.5, 150 mM NaCl, 1 mM DTT, and 5 mM MnCl2, unless otherwise stated, with 250 nM CARD1 and 2.5 uM of cA4, with 2 μg M13 ssDNA (NEB) (FIG. 1b), 500 ng of non-linearized and linearized ΦX174 dsDNA (NEB) (FIGS. 1d, e, respectively) and 2 μg ΦX174 ssDNA (NEB) (FIG. 1a). cA4 and cA6 was obtained from Biolog Life Science Institute GmbH & Co. KG (Bremen, Germany). The reaction products were visualized by agarose gel electrophoresis. For the RNA oligo cleavage assay, 250 nM of a Cy3-labelled RNA oligo was added to the reaction. The reaction products were run on Mini-PROTEAN TBE-Urea precast gel (Bio-Rad), and visualized on a TYPHOON IMAGE SCANNER. For degradation of ssRNA or dsRNA ladders, 1 ug of either ssRNA ladder (NEB) or dsRNA ladder (NEB) was digested. The reaction products were visualized by agarose gel electrophoresis. At the indicated timepoints, all reaction were stopped by the addition of 25 mM of EDTA.

pTarget = experiment: Plasmid curing assay; assay type: cell-based, Staphylococcus aureus; details: but not pCRISPR
Procedure: To assess CARD1's ability to promote plasmid curing under low transcription conditions, a plasmid curing assay was performed, by adapting a known approach. Briefly, overnight cultures of S. aureus cells harbouring pTarget and a pCRISPR containing either Csm6, dCsm6, or CARD1 were diluted to exactly OD 0.15 in tryptic soy broth with 10 ug/ml chloramphenicol. After removing a cell aliquot for the 0 timepoint, aTc was added to a concentration of 9.3 ng/ml (FIG. 4e) or 125 ng/ml (FIG. 4f) and the cells were incubated at 37° C., with further aliquots taken at the indicated times. The cells were then lysed, and the plasmid DNA isolated using a QIAprep Miniprep kit (Qiagen) according to the manufacturer's protocol (Qiagen). 400 ng of plasmid was then linearized using BamHI-HF (New England Biolabs), which cuts both pTarget and pCRISPR once, followed by visualization by gel electrophoresis.

phage Φ12γ3 [1] = experiment: In vivo anti-phage immunity growth curves (Φ12γ3); assay type: cell-based, Staphylococcus aureus RN4220
Procedure: For in vivo anti-phage immunity, cells harbouring various pCRISPRs were launched in triplicate overnight, diluted 1:100, outgrown for about an hour, and normalized for OD. Cells were seeded into a 96 well plate. Phage Φ12γ3 (25) […] was added at the appropriate multiplicity of infection, and OD measurements were taken every 10 minutes.

M13 ssDNA = experiment: Next-generation sequencing of ssDNA degradation products (M13); assay type: biochemical
Procedure: (§2) To assess the ssDNA cleavage patterns of CARD1, 2 ug of ΦX174 virion DNA (New England Biolabs) or M13 ssDNA (M13mp18) (New England Biolabs) was first digested by 250 nM CARD1 with 2.5 uM of cA4 in a buffer consisting of 20 mM Tris pH 7.5, 150 mM NaCl, 1 mM DTT, and 5 mM MnCl2. At the specified time points, the reaction was quenched by adding 25 mM of EDTA. Half the reaction was visualized by agarose gel electrophoresis. The remaining digestion products from the 2 hour timepoint were purified by phenol chloroform extraction.
Without further fragmentation, the purified digested DNA was subjected to the Accel-NGS 1S Plus DNA Library Kit (Swift Biosciences), proceeding according to the manufacturer's protocol, using a 1.5× ratio of magnetic beads (AMPure XP beads by Beckman Coulter) to also include small DNA fragments. One of the library preparation steps involves the addition of on average 8 nucleotides to the 3′ end of the DNA. […] The 5′ end of each read R1 represents the start of a DNA molecule, and thus a CARD1 cut site. Using a custom python script, the location of 7,020,067 ΦX174 reads (mapping to Genbank reference NC_001422) and 7,670,616 M13 reads (mapping to Genbank reference X02513) was determined. To account for reads mapping at the circular junctions, 65 nucleotides of the first 5′ end of the maps were copied and added at the 3′ end of the maps. […]

ΦX174 ssDNA = experiment: Next-generation sequencing of ssDNA degradation products (ΦX174); assay type: biochemical
Procedure: as §2
Without further fragmentation, the purified digested DNA was subjected to the Accel-NGS 1S Plus DNA Library Kit (Swift Biosciences), proceeding according to the manufacturer's protocol, using a 1.5× ratio of magnetic beads (AMPure XP beads by Beckman Coulter) to also include small DNA fragments. One of the library preparation steps involves the addition of on average 8 nucleotides to the 3′ end of the DNA. The 5′ end of the input DNA molecules remains unchanged. Paired-end sequencing was performed on an Illumina MiSeq. The 5′ end of each read R1 represents the start of a DNA molecule, and thus a CARD1 cut site. Using a custom python script, the location of 7,020,067 ΦX174 reads (mapping to Genbank reference NC_001422) and 7,670,616 M13 reads (mapping to Genbank reference X02513) was determined. To account for reads mapping at the circular junctions, 65 nucleotides of the first 5′ end of the maps were copied and added at the 3′ end of the maps. The DNA sequence 20 nucleotides upstream and downstream of the cut sites was extracted using a custom Python script, and the CARD1 cleavage motifs for ΦX174 and the M13 were determined separately using Weblogo3 (38), with basal nucleotide compositions determined by the compositions in each map (ΦX174 with A:24.0, C:21.4, G:23.3, T:31.3, and M13 with A:24.4, C:21.1, G:21.1, T:33.4). For the fragment size analysis, 8 nucleotides were removed from all the reads from the 3′ end pair mate by the “Trim Ends” option in the Geneious Bioinformatics Software platform (39). Using the STAR aligner (version 2.7.3) (40), 7,505,136 reads were successfully mapped to ΦX174, and 8,179,356 reads were successfully mapped to M13, using default arguments with the addition of --alignIntronMax 1 --alignMatesGapMax 6000 --peOverlapNbasesMin 5 --alignEndsProtrude 10 ConcordantPair.

[2] = tested on: Staphylococcus aureus RN4220; experiment: Growth curves, in vivo CARD1 toxicity induction; assay type: cell-based; details: pTarget + pCRISPR variant, no antibiotic selection of pTarget
Procedure: For in vivo CARD1 toxicity induction, triplicate RN4220 overnight cultures harbouring pTarget and a pCRISPR are diluted 1:100, outgrown for about an hour, and normalized for OD. Cells are then seeded in a 96 well plate. To induce targeting, 6.25-12.5 ng/ml of anhydrotetracycline (aTc) is added to the appropriate wells. Absorbance at 600 nm is then measured every 10 minutes by a microplate reader (TECAN Infinite 200 PRO). To analyze targeting escapers, cells from the end of the experiment (either cells from wells without aTc, i.e. naïve cells, or cells from wells that recovered later in the time course due to CARD1 toxicity) are re-streaked on BHI agar plates, and individual colonies were launched in liquid culture, diluted the next day, and used for a new time course experiment. From these overnight cultures, plasmid DNA was isolated (QIAgen Spin Miniprep Kit), digested by BamHI-HF (single-cutter for both pTarget and pCRISPR) (New England Biolabs), and visualized by gel electrophoresis. The deletion of important features in pTarget (making it unable to be targeted by pCRISPR) or pCRISPR was confirmed by Sanger sequencing.

[3] = tested on: RNA oligos with either 15 adenines, uracils, or cytosines; details: 5′ fluorophore and 3′ quencher; 15 A, U or C
Procedure: For determining the nucleotide cleavage preference of CARD1, the reaction was performed as above, with 1 uM of each RNA oligo (IDT). […] Fluorescent measurements were taken in a TECAN plate reader, using values from when the reaction was complete. 0.5 ul of RNaseI (Thermo Fisher Scientific), which cuts next to all RNA nucleotides, was used as a positive control.

[4] = tested on: ssRNA ladder, dsRNA ladder; experiment: Degradation of ssRNA or dsRNA ladders; assay type: biochemical; details: 15 minutes
Procedure: as §1

S. aureus viability = experiment: CARD1 toxicity assay (cfu enumeration); assay type: cell-based, Staphylococcus aureus
Procedure: To measure the effect of CARD1 activity on S. aureus viability over time, colonies of S. aureus harbouring pTarget and the specified pCRISPR were launched in liquid culture overnight in triplicate. The next day, cells were diluted 1:100 and grown out for about an hour, and normalized for OD. One aliquot was taken from each culture, and then aTc was added to induce CRISPR targeting and CARD1 activity (to a concentration of 3 ng/ml in FIG. 4c or 125 ng/ml in FIG. 5c). At each timepoint, cell aliquots were removed, centrifuged, resuspended in media lacking aTc, and serial dilutions were plated on solid BHI agar plates with or without aTc. All viable cells should grow on the solid agar plates, but only targeting escapers (cells that recover due to mutations in pTarget or pCRISPR) should form CFUs on plates with aTc.

[5] = tested on: circular ΦX174 and M13 ssDNA; experiment: In vitro DNA cleavage assay, agarose gel; assay type: biochemical
Procedure: as §1

phage Φ12γ3 [6] = experiment: Liquid anti-phage infection, PFU counts over time; assay type: cell-based, Staphylococcus aureus RN4220
Procedure: To obtain CFU and PFU counts over time from cultures infected with phage, RN4220 cultures harbouring various pCRISPRs were launched overnight, diluted 1:100, and outgrown for about one hour. Cells were then infected with phage Φ12γ3 at an MOI of 10, and an aliquot was taken shortly after to obtain PFUs at time 0. The cultures were then incubated further, with aliquots taken at 1 and 4 hours.

[7] = tested on: recA, lexA, uvrA and umuC transcripts; experiment: RT-qPCR of SOS-induced genes; assay type: cell-based, Staphylococcus aureus RN4220; details: after aTc induction; compared to d-CARD1; cells expressing Cas10HD
Procedure: Cells carrying pTarget and a pCRISPR containing either CARD1 or dCARD1 were grown overnight in triplicate, diluted 1/100 into fresh BHI with 10 ug/ml of chloramphenicol and outgrown for an hour. The cells were then diluted to an OD of 0.1. To induce targeting, aTc was added to a final concentration of 250 ng/ml. The cells were incubated with shaking for 20 minutes before being spun down at 6000×g for 5 minutes, and then lysed in PBS with 1 mg/ml of lysostaphin and 2 mg/ml of lysozyme for 10 minutes at 37° C. RNA was purified using Direct-zol RNA miniprep kit (Zymo Research) according to the manufacturer's protocol, followed by DNA depletion using TURBO DNA-free kit (Invitrogen) according to the manufacturer's protocol. To produce cDNA, approximately 2 ug of DNA-depleted RNA was treated using the SuperScript IV Reverse Transcriptase kit (Invitrogen) according to the manufacturer's protocol and random hexamer primers. The RT-qPCR reaction was performed using Fast SYBR Green Master Mix (Life Technologies) with an input of about 100 ng cDNA, in biological triplicate, using […] of each primer, on a QuantStudio 3 qPCR machine (Thermo Fisher). The housekeeping gene rho was used as an internal normalization control (37).

[8] = ORF9 and ORF27 transcripts targeted

## Cyclic Tetra-Adenylate [cA4]
Tresu_2185 (CARD1); 60 nucleotide RNA oligo
  degradation of RNA oligo by CARD1 in the presence of the cyclic oligoadenylate: degraded in the presence of cA4
Tresu_2185 (CARD1); circular ΦX174 and M13 ssDNA, 250 nM CARD1, 2.5 uM cA, 5 mM MnCl2, agarose gel
  degradation of ssDNA by Tresu_2185 on addition of the cyclic oligoadenylate: resulted in the degradation of circular ΦX174 and M13 ssDNA
Tresu_2185 (CARD1); supercoiled or linearized ΦX174 dsDNA
  cleavage of dsDNA by Tresu_2185 on addition of the cyclic oligoadenylate: did not promote cleavage

B1: CARD1: cA4-activated ssDNA and ssRNA nuclease of Treponema succinifaciens, SEQ ID NO:1; N-terminal CARF domain, C-terminal REase domain (protein, listed as Treponema succinifaciens)
chain: MKETILVNLVSEQTIPNVQFIKWYFNKKQTPMKILLVSTKEMEQKEKSLFIKNALHFSDSFVEWETIHTDGNDISKTENILTDYFRDNEYKNIIVNITGGTKIMSLAAFDFFNNKPNTEIFYQPIGKELQELYPNKQKYDMFEVLSLKEYLDAHGISYKYDNECVKDWNYNKTVYDLCVADNRELIKGMIALQNNSYFNNVYKRKDFLDFTQIEEEKFIAINHPAATKENMIKILQIFGFDVSRIEHKHIRYITGGWFEEYVYQKICNEYHNVDEKNVALNVTIQKGNDKNELDVIYLDKDNKLHVIECKSFVDGNEGNRVLNDALYKLQAIIKSKFGLYVKQHLYTKSIIEKETPLNRAKEFGIDIKDGTQL
pTarget
  time after addition of the inducer at which pTarget was cleared: 20 minutes
Phage Φ12γ3 [1]; [8]
  immunity in cells that express Cas10^HD: able to provide immunity
Phage Φ12γ3 [1]; early ORF9 transcript of Φ12γ3 targeted
  need of CARD1 nuclease activity for immunity, early target: not required for immunity
Phage Φ12γ3 [1]; late ORF27 transcript of Φ12γ3 targeted
  survival of cultures after infection, late target: able to survive infection
M13 ssDNA; M13, 5′ end mapping
  cuts that occur at the 25 most frequent positions: 31.1%
M13 ssDNA; M13, 2 hours timepoint
  average fragment length of degradation products: 150.1 nucleotides
ΦX174 ssDNA; stated for both ΦX174 and M13 ssDNA degradation products
  average product size: ~150 nucleotides
ΦX174 ssDNA; stated for both ΦX174 and M13 ssDNA degradation products, WebLogo
  cleavage site preference: preferentially upstream of T(A/G) sites
ΦX174 ssDNA; ΦX174, 5′ end mapping, 2 hours timepoint
  cuts that occur at the 25 most frequent positions: 26.7%
ΦX174 ssDNA; ΦX174, 2 hours timepoint
  average fragment length of degradation products: 163.6 nucleotides
[2]
  growth of cultures (OD600) after addition of aTc: severe growth defect
[3]
  degradation of homopolymer RNA oligos (sequence preference): able to efficiently degrade RNAs consisting of all three bases
[4]
  degradation of single-stranded versus double-stranded RNA: Single-stranded RNA, but not double-stranded RNA, was degraded
S. aureus viability; compared with colonies resistant to aTc (escapers)
  fraction of colonies formed in the absence of aTc that come from bona fide dormant cells: approximately half
S. aureus viability; three hours of target transcription, plated on media lacking aTc
  colony counts (viable cells) after CARD1 induction: initial decrease in colony counts of an order of magnitude
[5]; ΦX174 and M13 ssDNA, smear of products
  nuclease activity on ssDNA: cA4-activated, non-specific ssDNA nuclease
[5]; ΦX174 ssDNA, with or without MnCl2
  cation requirement of ssDNA degradation: required the addition of Mn cation
Phage Φ12γ3 [6]; [8]
  phage titer in cultures of cells that express Cas10^HD: reduce the phage titer
Phage Φ12γ3 [6]; ORF27 transcript of Φ12γ3 targeted
  phage propagation (pfu) at different times after infection: effectively eliminated Φ12γ3 from the culture
[7]
  expression of recA, lexA, uvrA and umuC (SOS response), normalized against rho: significant increase

— patent US12655405B2, “Sequence specific degradation of single-stranded polynucleotides with CARD1 nuclease” (The Rockefeller University, priority 2020, dated 2026)
